# Experimental data taken from US7098012.
# Read-outs that look alike come from different tables or passages of the source.
# Experiments:
# [1] = tested on: DNA demethylase (DNA dMTase) purified from A549 nuclear extract (Homo sapiens); assay: inhibition; conditions: 5mC at CpG; oligonucleotide sequence only as image; preparation of enzyme not stated
# [2] = tested on: DNA demethylase (DNA dMTase) purified from A549 nuclear extract (Homo sapiens); conditions: Km, 37 C, buffer L
substance,measurement,setting,value
double stranded CmG oligonucleotide inhibitor,Ki,[1],50 nM
fully methylated poly[mdCpdG]n,activity,"[2]; 5mC at all C of CpG, Vmax 340 pmol/h",2.5 nM
SssI-methylated pBluescript SK(+) plasmid,activity,"[2]; 5mC at all CpG, Vmax 40.42 pmol/h",3.3 nM
hemimethylated [dCpdG]n*[mdCpdG]n,activity,"[2]; 5mC on one strand, Vmax 402 pmol/h",6 nM
